Five molecules from patent US20240294622A1 (SUZHOU TRANSCENTA THERAPEUTICS, published 2024) can be followed below.

Assay [1] has as its target T1, HGREM1-His (ACRO) (human, UniProt O60565 25-184).
T1 construct: Lys25-Asp184 of NP_037504 with C-terminal polyhistidine tag (ACRO GR1-H52H3); they are put here; also called hGREM1 (ACRO); human gremlin (ACRO)
T1 sequence: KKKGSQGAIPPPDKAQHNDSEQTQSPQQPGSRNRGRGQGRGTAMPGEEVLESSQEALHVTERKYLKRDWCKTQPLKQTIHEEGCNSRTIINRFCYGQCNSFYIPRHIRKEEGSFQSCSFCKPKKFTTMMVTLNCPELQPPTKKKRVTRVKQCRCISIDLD
Kind of assay: ELISA, coated hGREM1 (ACRO). As to the method:
(§1) Clear polystyrene plates (BEAVER) were coated with 100 μl/well of a […] hGREM1 (ACRO) and mouse gremlin (R&D) in high pH coating buffer overnight at 4° C. Then the plates were washed once on an automatic plate washer using PBS+0.1% Tween 20 (Sigma). 100 μl of block solution consisting of PBS+1% BSA+1% normal goat serum+0.5% Tween 20 (Sigma) was added to each well and incubated at room temperature for 2 hours. Then 100 μl of antibodies in antibody dilution buffer containing PBS+1% BSA+1% normal goat serum+0.01% Tween 20 starting from 2 μg/ml and then serial dilutions were added to each well of the plate and incubated for 1 hours at room temperature. Afterward the plates were washed three times with 200 μl of PBS+0.1% Tween20 followed by adding 100 μl/well 1:10000 Goat anti mouse IgG-HRP (abcam), and incubate for 1 hour at room temperature. They were then washed 3× with PBS+0.1% Tween20. Finally, 100 µl/well of TMB (Pierce) was added to each well and after several minutes add 50 μl of stop solution to each well. The plates were read on a Multiscan FC microplate reader (Thermo Scientific) at […].
On the technique in general: An ELISA detects its analyte on a solid surface through an enzyme-linked reagent.

The target in assay [2] is T1, HGREM1-His (ACRO). Kind of assay: competition ELISA on captured human gremlin (Acro,0.5ug/ml), lower panel: hybridoma 22F1 titrated against a fixed amount of chimeric 22F1-C, bound chimeric antibody detected. As to the method:
(§2) Epitope binning of anti-gremlin hybridoma antibodies were performed using a competition ELISA assay. Clear polystyrene plates (BEAVER) were coated with 100 μl/well of a 0.5 μg/ml hGREM1 (ACRO) in high pH coating buffer overnight at 4° C. Then the plates were washed once on an automatic plate washer using PBS+0.1% Tween 20 (Sigma). 100 μl of block solution consisting of PBS+1% BSA+1% normal goat serum+0.05% Tween 20 (Sigma) was added to each well and incubated at room temperature for 2 hours. Then 50 μl/well of 20 μg/ml saturated antibodies (hybridoma antibodies) in antibody dilution buffer (PBS+1% BSA+1% normal goat serum+0.01% Tween 20) were then added to each well of the plate and incubate for 1 hour. Then add 50 μl/well of 40 ng/ml competitive antibodies (chimeric antibodies, e.g., 14E3-C, 22F1-C, 56C11-C, and 69H5-C) to each well of the plate and incubate for another 1 hour at room temperature. […] The plates were read on a plate reader at 450 nm. The failure of the second antibody to bind in the presence of saturating quantities of the first antibody indicates the two antibodies were in the same epitope bin; the success of the second antibody to bind in the presence of the saturating quantities of the first antibody indicates the two antibodies were in different epitope bins. […]
(§3) The amount of chimeric antibody bound to gremlin were determined.

The target in a further assay is T2, Mouse Gremlin-His (R&D) (mouse, UniProt O70326 25-184).
T2 construct: Lys25-Asp184 with 10xHis, R&D 956-GR; also called mouse gremlin (R&D); mGREM1
T2 sequence: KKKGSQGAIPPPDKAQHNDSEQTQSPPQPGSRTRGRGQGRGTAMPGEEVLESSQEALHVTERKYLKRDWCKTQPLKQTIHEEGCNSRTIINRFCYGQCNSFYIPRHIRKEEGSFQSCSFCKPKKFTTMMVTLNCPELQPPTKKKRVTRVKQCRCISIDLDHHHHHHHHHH
Kind of assay: ELISA on coated Mouse Gremlin-his, anti-mouse IgG-HRP. As to the method: as §1

In assay [3] the target is T1, HGREM1-His (ACRO). Kind of assay: competition ELISA on captured human gremlin (Acro,0.5ug/ml), lower panel: hybridoma 22F1 titrated against a fixed amount of chimeric 14E3-C, bound chimeric antibody detected. As to the method: as §2, §3
Assay [4] addresses T1, HGREM1-His (ACRO). The experiment in a line: ELISA, binding to hGremlin-his.
Another assay deals with T3, XM5-his (human (hGREM1 with residues 123-143 …)).
T3 construct: Unpurified supernatant used; also called gremlin-DAN fusion protein XM5; chimeric hGREM1
T3 chain: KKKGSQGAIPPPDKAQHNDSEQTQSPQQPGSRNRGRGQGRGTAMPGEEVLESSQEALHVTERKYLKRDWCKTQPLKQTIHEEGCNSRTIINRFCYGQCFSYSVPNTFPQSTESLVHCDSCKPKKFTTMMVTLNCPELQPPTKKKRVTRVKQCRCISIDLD
The experiment in a line: ELISA: antibody coated, XM5-his supernatant titrated (axis: supernatant percentage, %), anti-his-HRP. Here is the method: (§4) Using a similar ELISA protocol mentioned above, binding of chimeric antibody 14E3 to XM5 or Gremlin were tested. […] The secondary antibody anti-his-HRP was used for detection.

Assay [5] has as its target T4, hGREM1 (source and construct not stated) (human, UniProt O60565 25-184).
T4 construct: also called Gremlin; gremlin
T4 sequence: T1 sequence
The experiment in a line: ELISA on hGREM1.

Assay [6] deals with T1, HGREM1-His (ACRO). Kind of assay: ELISA: antibody coated, Gremlin-his titrated, anti-his-HRP; the concentration is that of Gremlin-his. Here is the method: as §4
Assay [7] addresses T5, hGREM1 (Peprotech) (human, UniProt O60565 25-184).
T5 construct: also called biotin-hGremlin
T5 sequence: T1 sequence
Kind of assay: SPR Biacore T200, 25 C, hGREM1 (Peprotech) immobilized, antibody 12.5-400 nM. As to the method: (§5) HGREM1 (Peprotech) was immobilized on the Biacore sensor chip. Kinetic experiments were carried out using HBS-EP+ as both the running buffer and the sample buffer. […] Antibody-antigen association was monitored for 180 s while dissociation in buffer was monitored for 360 s. Kinetic analysis was performed using Biacore T200 evaluation software to determine Ka and Kd values. KD was calculated from the experimentally determined Ka and Kd values as KD=Kd/Ka.
(In general: SPR reads the build-up and loss of mass on a sensor chip optically.)

Assay [8] concerns the target T5, hGREM1 (Peprotech). Kind of assay: Biacore at 25 °C, Gremlin (Peprotech) on the chip, antibody as analyte. As to the method:
as §5

The next assay concerns the target T6, BMP4 with his-tag (Homo sapiens (Human), UniProt P12644 293-408, Natural BMP4 is a disulfide-linked homodimer; one protomer is given. The his-tag is left out.).
T6 construct: also called BMPs (BMP2/4/7) with his-tag
T6 sequence: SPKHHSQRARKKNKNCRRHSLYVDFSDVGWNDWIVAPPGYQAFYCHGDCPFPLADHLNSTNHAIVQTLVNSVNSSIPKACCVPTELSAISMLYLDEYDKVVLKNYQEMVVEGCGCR
The experiment in a line: ELISA: anti-human Fc coated, XM5-hFc supernatant (1:32) captured, his-tagged BMP4 titrated, anti-his-HRP.

For a further assay, the target named is T7, BMP2 with his-tag (Homo sapiens (Human), UniProt P12643 283-396, Natural BMP2 is a disulfide-linked homodimer; one protomer is given. The his-tag is left out.).
T7 construct: soluble his-tagged BMP used on captured XM5-Fc or Gremlin-Fc; also called BMPs (BMP2/4/7) with his-tag
The experiment in a line: ELISA: anti-human Fc coated, XM5-hFc supernatant (1:32) captured, his-tagged BMP2 titrated, anti-his-HRP.

The next assay deals with T8, BMP7 with his-tag (Homo sapiens (Human), UniProt P18075 293-431, Natural BMP7 is a disulfide-linked homodimer; one protomer is given. The his-tag is left out.).
T8 construct: also called BMPs (BMP2/4/7) with his-tag
T8 sequence: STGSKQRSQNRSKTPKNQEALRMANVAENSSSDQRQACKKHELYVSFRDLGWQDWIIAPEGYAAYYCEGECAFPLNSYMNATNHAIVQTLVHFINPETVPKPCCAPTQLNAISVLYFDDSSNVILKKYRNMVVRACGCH
The experiment in a line: ELISA: anti-human Fc coated, XM5-hFc supernatant (1:32) captured, his-tagged BMP7 titrated, anti-his-HRP.

For assay [9], the target named is T1, HGREM1-His (ACRO). The experiment in a line: ELISA: coated BMP2, gremlin titrated (sheet title: BMP2/4/7 binding to human gremlin-his).
The target in assay [10] is T9, Gremlin-Fc (human, UniProt O60565 25-184).
T9 construct: also called HGREM1-Fc (ACRO); wild-type gremlin-1
T9 sequence: T1 sequence
The experiment in a line: ELISA, coated BMP2 0.5 ug/ml. As to the method: (§6) Gremlin is known to be able to bind to BMP proteins and is validated by the present disclosure. Briefly, gremlin-Fc was tested for its binding ability to BMP 2/4/7 immobilized on plate. Briefly, plates were coated with […] of recombinant human BMP2, BMP4) (hBMP4, Peprotech) or human BMP7 (R&D) overnight and wild-type gremlin-1 was added to coated plates and allowed to incubate for an additional hour at RT. The plates were then washed and plate bound biotin-hGremlin was detected with neutravidin conjugated with HRP (thermo). Plates were then developed with a TMB solution and stopped by adding stop solution. The plates were read on a plate reader at 450 nm.

Assay [11] addresses T9, Gremlin-Fc. The experiment in a line: ELISA, coated BMP4 0.5 ug/ml. Here is the method:
as §6

Assay [12] concerns the target T1, HGREM1-His (ACRO). Kind of assay: ELISA: coated BMP4, gremlin titrated (sheet title: BMP2/4/7 binding to human gremlin-his). Here is the method: as §6

B1: 22F1 (antibody, V domains shown)
VH: EAQLQQSGPELVKPGASVKISCKASGYSFTDYYMNWLKQSHGKSLEWIGDINPKDGDSGYSHKFKGKATLTVDKSSSTAYMELRSLTSEDSAVYYCASGFTTVVARGDYWGQGTTLTVSS
VL: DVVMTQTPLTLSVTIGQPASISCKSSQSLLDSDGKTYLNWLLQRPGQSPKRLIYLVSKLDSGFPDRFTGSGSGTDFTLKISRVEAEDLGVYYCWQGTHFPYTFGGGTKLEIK
notes: mouse hybridoma antibody; also called hybridoma 22F1
What is called EC50 is the concentration giving half of the maximal effect. As to B1, a half-maximal response with HGREM1-His (ACRO) [1] (EC50) required 0.0141 µg/mL. Besides, the “IC50 (read off the curve)” value with HGREM1-His (ACRO) [2] and with HGREM1-His (ACRO) [3] was roughly 0.8 µg/mL each time. Further, the binding result with Mouse Gremlin-His (R&D) is “no binding”.

B2: 14E3-C (chimeric antibody of 14E3) (antibody, V domains shown)
VH: QIQLVQSGPELKKPGETVKISCKTSGSTFTTYGMAWMKQAPGKGLTWMGWINTLSGEPTYADDFKGRFAFSLKTSANTAYLQINNLKNEDAATYFCAREPMDYWGQGTSVIVSS
VL: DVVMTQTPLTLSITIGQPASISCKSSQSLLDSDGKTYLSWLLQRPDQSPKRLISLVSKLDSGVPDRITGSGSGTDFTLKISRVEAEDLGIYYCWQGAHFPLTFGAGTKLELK
notes: also called chimeric 14E3; 14E3 hIgG1
A word on the EC50 (read off the curve): it is the concentration at which the effect is half-maximal. Read a high EC50 (read off the curve) as a less potent agent. Usually Kd stands for the constant that tells how readily two partners part at equilibrium. One may read the koff as a measure of how fast the partners let go of each other. The kon is the rate constant with which the complex forms. B2 had an EC50 with HGREM1-His (ACRO) [4] of 0.0068 µg/mL. Further, in the assay with XM5-his, the binding result is “binds”. Also, the EC50 in [5] is 0.00524 µg/mL. Moreover, in the assay with HGREM1-His (ACRO) [6], the concentration for a half-maximal effect (EC50 (read off the curve)) is roughly 0.01 µg/mL. For the same molecule, the Kd in the assay with hGREM1 (Peprotech) [7] came to 17.7 nM. In the assay with hGREM1 (Peprotech) [8], this molecule displayed a koff of 0.000882 s⁻¹ and a kon of 49900 M⁻¹ s⁻¹.

B3: XM5-Fc (Fc fusion, not shown: a dimerising Fc or GST)
chain: T3 chain
notes: also called gremlin 1-DAN fusion protein
Regarding B3, the binding result with BMP4 with his-tag, with BMP2 with his-tag and with BMP7 with his-tag was “no binding (tested: 2.00 ug/ml)” throughout.

B4: recombinant human BMP2 (ligand, UniProt P12643 283-396, looked up)
chain: QAKHKQRKRLKSSCKRHPLYVDFSDVGWNDWIVAPPGYHAFYCHGECPFPLADHLNSTNHAIVQTLVNSVNSKIPKACCVPTELSAISMLYLDENEKVVLKNYQDMVVEGCGCR
notes: also called hBMP2
B4: the binding result in the assay with HGREM1-His (ACRO) [9] and in the assay with Gremlin-Fc [10] was “binds” throughout.

B5: recombinant human BMP4 (ligand, UniProt P12644 293-408, looked up)
chain: T6 sequence
notes: also called hBMP4
B5: the binding result with Gremlin-Fc [11] and with HGREM1-His (ACRO) [12] was “binds” throughout.
